From article PMC8240970, “Orally delivered polycurcumin responsive to bacterial reduction for targeted therapy of inflammatory bowel disease” (Drug Delivery, 2017)
Marks after values point to notes of the source that are not given here. One block for each molecule: values may come before it.

Assays:
Caco-2 cells [1] = assay: LDH release assay; conditions: 25 μg/mL Cur, within 2 h, versus control
Method: A lactate dehydrogenase (LDH) assay kit (Beyotime, Haimen, China) was used to determine the ability of PCur to destroy cell membranes. Briefly, Caco-2 cells seeded in a 96-well plate were incubated with Cur solution and PCur at 25 μg/mL concentration of Cur for 2 h, and serum-free medium was used as a control. After 1 h of incubation, 20 μL LDH release medium was added, followed by 1 h of co-incubation. One hundred and twenty microliter supernatant was transferred to a new plate at a determined time interval, followed by the addition of 60 μL LDH test medium and incubated for 30 min with gentle shaking. Finally, the absorption was measured at 490 nm on a microplate reader (Bio-Rad 500, Hercules, CA).

Caco-2 cells [2] = assay: In vitro cytotoxicity by MTT assay; conditions: 1 to 100 μg/mL Cur, 2 h incubation
Method: In vitro cytotoxicity of PCur and Cur solution was assessed in Caco-2 cells by MTT assay. Caco-2 cells were seeded at a density of 1 × 10^5 cells/mL in 100 μL DMEM culture medium in a 96-well plate at 37 °C and 5% CO2. After 24 h of incubation, Caco-2 cells were exposed to Cur and PCur solution with different Cur concentrations for 2 h. Meanwhile, serum-free medium incubation without drug was utilized as a control. MTT solution (20 μL, 5 mg/mL in PBS) was then added to each well, and the cells were further incubated for 4 h. The supernatant was removed and 100 μL of DMSO was introduced to each well to dissolve formazan crystals. Optical density (OD) was measured with a microplate reader (Thermo Scientific, Waltham, MA) at 570 nm. The experiments were repeated at least four times. Cell viability (%) was calculated as the ratio of OD in test samples to OD in control samples.

DSS-induced IBD = assay: Pharmacodynamics in a murine DSS-induced IBD model (body weight, DAI, colon length, histology); format: in vivo, female C57BL/6 mice; conditions: for disease activity index (DAI) / recovery of shortened colon length / weight loss: 3% DSS for seven days, daily gavage, Cur 50 mg/kg; for weight loss: versus DSS or Cur suspension
Method: (§1) Animal experiments were performed in female C57BL/6 mice (eight weeks, 18–20 g). Colitis was induced by feeding mice with a 3% (wt./vol) DSS solution as drinking water for seven days. The daily evaluation of mice was based on changes in body weight and development of the clinical symptoms of colitis. Disease activity index (DAI) was calculated according to the parameter previously reported (Li et al., [2015]). […] The dosage of Cur was set at 50 mg/kg. Mice were sacrificed on day 7, and histological assessment of colonic inflammation was carried out by hematoxylin and eosin (H&E) staining of 5 μm colonic tissue sections, observed by microscopy (×20 magnification). The samples were scored for inflammatory infiltration (0–3), epithelial abnormality (0–3) and crypt damage (0–3) and then the values of the three variables were summed as an indicator of inflamed degree (Magro et al., [2013]).

IL-6 = IL-6 level in colonic tissue by ELISA, DSS-induced IBD mice; format: in vivo, female C57BL/6 mice; conditions: oral, Cur 50 mg/kg
Method: as §1, with “[2013]). The levels of IL-6 and TNF-α in homogenized colonic tissue were measured by quantitative enzyme-linked immunosorbent assay (ELISA) kits according to manufacturer’s instructions (R&D Systems Inc., Minneapolis, MN). The final values of IL-6 and TNF-α were expressed as pg/mg or ng/mg protein (Qiao et al., [2014]).” for “[2013]).”

TNF-α = TNF-α level in colonic tissue by ELISA, DSS-induced IBD mice; format: in vivo, female C57BL/6 mice; conditions: oral, Cur 50 mg/kg
Method: as §1, with “[2013]). The levels of IL-6 and TNF-α in homogenized colonic tissue were measured by quantitative enzyme-linked immunosorbent assay (ELISA) kits according to manufacturer’s instructions (R&D Systems Inc., Minneapolis, MN). The final values of IL-6 and TNF-α were expressed as pg/mg or ng/mg protein (Qiao et al., [2014]).” for “[2013]).”

[3] = Particle size and zeta potential by dynamic light scattering; format: physicochemical; conditions: in water, 25 °C
[4] = Drug-loading content (Cur content in PCur); format: physicochemical
[5] = In vitro release of Cur from PCur in pH 7.4 PBS with or without GSH; format: physicochemical
[6] = In vitro release of PCur under different pH conditions; format: physicochemical
Method: Effect of pH values on drug release was also evaluated in the following buffers: hydrochloric acid/potassium chloride (pH 1.2), acetic acid/sodium acetate (pH 6.5) and PBS (pH 7.4). Buffer selection was based on the normal variations of the pH in the GIT from the stomach (pH 1.5) and the proximal small intestine (pH 6.0–6.8) to the ileocecal region (pH 7.3) (Hua et al., [2015]). One milliliter of sample (containing 1.2 mg of Cur) was placed in a dialysis bag, immersed into each media containing 0.1% (w/v) Tween 80 for drug release.

[7] = In vitro stability testing of PCur (size by DLS, morphology by TEM); format: physicochemical; conditions: 37 °C
Source text: A small portion of solution was collected at predetermined time points to measure the size distribution of PCur conjugate by DLS.

Caco-2 cell monolayer = assay: Transcellular study, apparent permeability coefficient; format: in vitro ADME
Method: A 400 μL of culture medium was added to the apical (AP) side, and 600 μL was added to the basolateral (BL) side. The medium in both the AP and BL sides was changed every two days for the first week and every day thereafter. After 21 days of incubation, the integrity of the cell monolayers was evaluated by measuring transepithelial electrical resistance (TEER) values using a Millicell® electrical resistance system (Millipore, Billerica, MA). When the TEER value of inserts exceeded […], indicating cell monolayers were integrated and tight junctions were intact, they were selected for further transport studies. For transcellular research, the culture medium in the AP and BL side was removed and changed by HBSS. […] Six hundred microliter of fresh HBSS was added to the BL side. […] One hundred microliter of sample was mixed with 50 μL chloramphenicol (IS) and 50 μL acetonitrile, vortexed and centrifuged. The concentration of Cur in supernatant was determined by UPLC–MS/MS. At the end of the experiment, TEER values were assayed to estimate the integrity of the cell monolayers. The apparent permeability coefficient (Papp) for Cur was calculated according to the following equation: Papp=(dQ/dt)/(A×C0) where the dQ/dt was the drug permeation rate, A was the surface area of polycarbonate membrane and C0 was the initial concentration of Cur in AP side.

[8] = Pharmacokinetic study after oral administration; design: species or system Sprague–Dawley (SD) rats; conditions: rat, in vivo, 50 mg/kg
Method: Pharmacokinetics of PCur and Cur suspension were tested in SD rats, which were randomly divided into two study groups with six in each group. […] Three hundred microliter of blood samples were collected at 5, 10, 15, 30 and 45 min, 1, 2, 4, 8, 12 and 24 h post oral gavage and centrifuged at 12 000 rpm for 10 min. The supernatant plasma was collected and stored at −20 °C for UPLC–MS/MS analysis. The concentration of Cur was determined by a Waters ACQUITY UPLC system using a Xevo Triple Quadrupole MS equipped with an electrospray ionization (ESI) interface (Waters Co., Milford, MA). One hundred microliter plasma was mixed with 50 μL chloramphenicol (IS) and 50 μL acetonitrile, followed by vortexing for 3 min, and centrifuged at 12 000 rpm for 10 min. […] An aliquot of 5 μL was injected into the UPLC–MS/MS for analysis. Pharmacokinetic parameters were calculated using DAS 2.1 software (BioGuider Co., Shanghai, China).

MPO activity = assay: Myeloperoxidase (MPO) activity in colon of DSS-induced IBD mice; format: in vivo, female C57BL/6 mice; conditions: oral, Cur 50 mg/kg
Method: as §1, with “[2013]). Neutrophil infiltration into the colon can be quantified by measuring MPO activity. […] The homogenate was then sonicated for 10 s, freeze-thawed three times, and centrifuged at 12 000 rpm for 15 min. The supernatant was then added to 1 mg/mL o-dianisidine hydrochloride and 0.0005% hydrogen peroxide, and the change in absorbance at 460 nm was measured.” for “[2013]).”

MDA content = assay: Malondialdehyde (MDA) content of colon of DSS-induced IBD mice; format: in vivo, female C57BL/6 mice; conditions: oral, Cur 50 mg/kg
Method: as §1, with “[2013]). Lipid peroxidation was evaluated by measuring the MDA content of the colon according to standard procedure protocol described in MDA Assay Kit (Beyotime, Haimen, China). In short, the colorimetric determination of MDA is based on the reaction of the reactive aldehyde with thiobarbituric acid at low pH (2–3) and temperature of 95 °C for 45 min. The pinkish resultant was extracted by n-butanol, and the absorbance was determined at 535 and 520 nm spectrophotometrically. […]” for “[2013]).”

LDH leakage (Caco-2 cells [1]): no significant LDH leakage
Molecule: COc1cc(/C=C/C(=O)CC(=O)/C=C/c2ccc(O)c(OC)c2)ccc1O [Cur solution, Curcumin]
cellular viability (Caco-2 cells [2]): neither Cur solution nor PCur induced any significant changes

Molecule: O=C(O)c1cc(/N=N/c2ccc(S(=O)(=O)Nc3ccccn3)cc2)ccc1O [SSZ, sulfasalazine, reference compound]
disease activity index (DAI) (DSS-induced IBD): successfully mitigated
recovery of shortened colon length (DSS-induced IBD): strongest efficacies
weight loss (DSS-induced IBD): less weight loss
inhibition of the production of IL-6 in colonic tissue (IL-6): strongest efficacy
inhibition of the production of TNF-α in colonic tissue (TNF-α): strongest efficacy

Molecule: PEG-ss-curcumin [PCur]
average particle size ([3]; DLS): 134.4 ± 4.2 nm
Zeta potential [3]: −3.3 ± 1.2 mV
loading content ([4]; calculated from integrated areas of 1H NMR spectra): 12.5%
loading content ([4]; determined by fluorescence spectra): ~14.6%
Cur released ([5]; pH 7.4 PBS with 10 mM GSH, in 2 h): ~30%
Cur released ([5]; pH 7.4 PBS with 10 mM GSH, within 24 h): 53%
Cur released ([5]; pH 7.4 buffer, without or with 10 μM GSH, first 2 h): less than 10%
Cur released ([5]; pH 7.4 buffer, without or with 10 μM GSH, within 24 h): approximately 15%
Cur released ([6]; buffer of pH 6.5, 24 h): less than 25%
Cur released ([6]; buffer of pH 6.5, first 2 h): 10%
pH-responsive release characteristic ([6]; pH 7.4, 6.5 and 1.2): No significant pH-responsive release characteristic
change of particle size distribution ([7]; pH 1.2 and pH 7.4 PBS): little change
change of mean diameter ([7]; pH 7.4 PBS with 10 mM GSH): substantially increased
apparent permeability coefficient (Papp) of Cur (Caco-2 cell monolayer): 2.38 ± 0.29 × 10^−6 cm/s
AUC0–24 h [8]: 202.05 ± 6.72^b h ng/mL
AUC0–∞ [8]: 223.52 ± 5.25^b h ng/mL
AUC(0 − 24) increase relative to Cur suspension [8]: 8.63 times
Cmax [8]: 23.35 ± 0.96^b ng/mL
Cmax relative to Cur suspension [8]: 3.41 fold
MRT0–∞ [8]: 9.60 ± 2.28^a h
T1/2 [8]: 6.77 ± 1.40 h
Tmax [8]: 0.50 ± 0.25^a h
disease activity index (DAI) (DSS-induced IBD): successfully mitigated
recovery of shortened colon length (DSS-induced IBD): strongest efficacies
weight loss (DSS-induced IBD): less weight loss
histological examination of colon (H&E) (DSS-induced IBD; day 7, versus DSS mice receiving PBS or Cur suspension): intact epitheliums, well-defined crypt structures and relatively low levels of neutrophil invasion
MPO activity in colonic tissue (MPO activity): strongly decreased
MDA content in colonic tissue (MDA content): strongly decreased
inhibition of the production of IL-6 in colonic tissue (IL-6): strongest efficacy
inhibition of the production of TNF-α in colonic tissue (TNF-α): strongest efficacy
